Assay results published in US20070202134A1, “Muc1 Antagonist Enhancement of Death Receptor Ligand-Induced Apoptosis” (priority 2004, published 2007).

Tested on: HCT116/vector cells
Test: Apoptosis by analysis of sub-G1 DNA, HCT116/vector cells
Assay type: cell-based, Human
Conditions: 100 ng/ml TRAIL for 14 hr, without adding CHX
Description: Methods. Apoptotic cells were quantified by analysis of sub-G1 DNA and TUNEL staining. To assess sub-G1 DNA content, cells were harvested, washed with PBS, fixed with 80% ethanol, and incubated in PBS containing 20 ng/ml RNase (Roche) for 60 min at 37° C. Cells were then stained with […] propidium iodide (Sigma) for 30 min at room temperature in the dark. DNA content was analyzed by flow cytometry (EPICS XL-MCL, Coulter Corp.). Apoptotic cells with DNA fragmentation were detected by staining with the In Situ cell death detection kit (TUNEL; Roche Applied Science) and visualized by confocal microscopy (ZEISS LSM510). After staining, cells were analyzed by flow cytometry. Other experimental procedures and methods were as described in Example 1.

B1: TRAIL: TNF-related apoptosis-inducing ligand, rhTRAIL (Calbiochem-Novabiochem) (protein, UniProt P50591 1-281, looked up)
Tumor necrosis factor ligand …: MAMMEVQGGPSLGQTCVLIVIFTVLLQSLCVAVTYVYFTNELKQMQDKYSKSGIACFLKEDDSYWDPNDEESMNSPCWQVKWQLRQLVRKMILRTSEETISTVQEKQQNISPLVRERGPQRVAAHITGTRGRSNTLSSPNSKNEKALGRKINSWESSRSGHSFLSNLHLRNGELVIHEKGFYYIYSQTYFRFQEEIKENTKNDKQMVQYIYKYTSYPDPILLMKSARNSCWSKDAEYGLYSIYQGGIFELKENDRIFVSVTNEHLIDMDHEASFFGAFLVG
induction of apoptosis: effective in inducing apoptosis
